Source: US20260015418A1

Biological target: human 4-1BB on Jurkat cells (Promega) (human) (UniProt Q07011)
Assay: cell-based or functional assay

Sequence of human 4-1BB on Jurkat cells (Promega) (human) (Q07011 24-255): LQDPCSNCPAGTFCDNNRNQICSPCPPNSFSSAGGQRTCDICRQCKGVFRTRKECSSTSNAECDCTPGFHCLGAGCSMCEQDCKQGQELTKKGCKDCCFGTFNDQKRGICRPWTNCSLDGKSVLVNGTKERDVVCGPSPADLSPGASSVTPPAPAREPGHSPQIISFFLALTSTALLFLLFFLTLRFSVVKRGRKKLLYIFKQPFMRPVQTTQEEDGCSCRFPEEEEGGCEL

Substance: Urelumab (BMS-663513) (antibody)
- EC50 (nM), 4-1BB NFκB luciferase reporter bioassay, CHO-hROR1 100%: 0.235 nM
